The values that follow come from paper PMC3082741 (Chemistry & biology, 2011).

The target of data set [1] is AcrA^S362C modified with biotin-maleimide, the immobilized AcrA (E. coli) (UniProt P0AE06). In words: SPR. (In general: In SPR one partner is held on a chip, and binding of the other changes the refractive index at the surface.)
Data set [2] deals with the molecule itself. In words: SEC-MALS.
Data set [3] concerns the molecule itself. The data set can be described thus: SDS-PAGE under reducing and non-reducing conditions.
Data set [4] concerns the molecule itself. The data set can be described thus: SEC-MALS. The source holds these as a separate data set. On the technique in general: In gel filtration, larger molecules generally elute earlier.

“And” between values parts separate entries of the source, which are not always exact repeats. Equal values may be shown once.

As to “TolC, outer membrane channel (from UniProt P02930 23-493) (natural protein)”, in data set [1], the KD1 (slow complexes, two populations of AcrA) came out at 0.01 µM and the KD2 (fast complexes, two populations of AcrA) was 0.11 µM. In data set [1], “TolC^YFRE, TolC mutant containing Y362F and R367E substitutions (open variant) (from UniProt P02930 23-493) (natural protein)” yielded a KD1 (slow complexes, two populations of AcrA) of 0.02 µM and a KD2 (fast complexes, two populations of AcrA) of 6.7 µM.

B1: AcrA^l, native lipid-modified AcrA (natural protein)
chain: CDDKQAQQGGQQMPAVGVVTVKTEPLQITTELPGRTSAYRIAEVRPQVSGIILKRNFKEGSDIEAGVSLYQIDPATYQATYDSAKGDLAKAQAAANIAQLTVNRYQKLLGTQYISKQEYDQALADAQQANAAVTAAKAAVETARINLAYTKVTSPISGRIGKSNVTEGALVQNGQATALATVQQLDPIYVDVTQSSNDFLRLKQELANGTLKQENGKAKVSLITSDGIKFPQDGTLEFSDVTVDQTTGSITLRAIFPNPDHTLLPGMFVRARLEEGLNPNAILVPQQGVTRTPRGDATVLVVGADDKVETRPIVASQAIGDKWLVTEGLKAGDRVVISGLQKVRPGVQVKAQEVTADNNQQAASGAQPEQSKS
modifications: N-terminal lipid modification at C25
B1: in “SEC-MALS [2]”, the “stoichiometry N” value is 2.

B2: AcrA^G363C, lipid-modified AcrA with the G363C substitution in the MP domain (natural protein)
chain: CDDKQAQQGGQQMPAVGVVTVKTEPLQITTELPGRTSAYRIAEVRPQVSGIILKRNFKEGSDIEAGVSLYQIDPATYQATYDSAKGDLAKAQAAANIAQLTVNRYQKLLGTQYISKQEYDQALADAQQANAAVTAAKAAVETARINLAYTKVTSPISGRIGKSNVTEGALVQNGQATALATVQQLDPIYVDVTQSSNDFLRLKQELANGTLKQENGKAKVSLITSDGIKFPQDGTLEFSDVTVDQTTGSITLRAIFPNPDHTLLPGMFVRARLEEGLNPNAILVPQQGVTRTPRGDATVLVVGADDKVETRPIVASQAIGDKWLVTEGLKAGDRVVISCLQKVRPGVQVKAQEVTADNNQQAASGAQPEQSKS
modifications: N-terminal lipid modification at C25; disulfide bond between the two chains
Take B2: in data set [3], the “stoichiometry N” value was 2.

B3: AcrB^S1043C biotinylated at C1043 (Cys1043^bio), the immobilized AcrB (natural protein)
chain: MPNFFIDRPIFAWVIAIIIMLAGGLAILKLPVAQYPTIAPPAVTISASYPGADAKTVQDTVTQVIEQNMNGIDNLMYMSSNSDSTGTVQITLTFESGTDADIAQVQVQNKLQLAMPLLPQEVQQQGVSVEKSSSSFLMVVGVINTDGTMTQEDISDYVAANMKDAISRTSGVGDVQLFGSQYAMRIWMNPNELNKFQLTPVDVITAIKAQNAQVAAGQLGGTPPVKGQQLNASIIAQTRLTSTEEFGKILLKVNQDGSRVLLRDVAKIELGGENYDIIAEFNGQPASGLGIKLATGANALDTAAAIRAELAKMEPFFPSGLKIVYPYDTTPFVKISIHEVVKTLVEAIILVFLVMYLFLQNFRATLIPTIAVPVVLLGTFAVLAAFGFSINTLTMFGMVLAIGLLVDDAIVVVENVERVMAEEGLPPKEATRKSMGQIQGALVGIAMVLSAVFVPMAFFGGSTGAIYRQFSITIVSAMALSVLVALILTPALSATMLKPIAKGDHGEGKKGFFGWFNRMFEKSTHHYTDSVGGILRSTGRYLVLYLIIVVGMAYLFVRLPSSFLPDEDQGVFMTMVQLPAGATQERTQKVLNEVTHYYLTKEKNNVESVFAVNGFGFAGRGQNTGIAFVSLKDWADRPGEENKVEAITMRATRAFSQIKDAMVFAFNLPAIVELGTATGFDFELIDQAGLGHEKLTQARNQLLAEAAKHPDMLTSVRPNGLEDTPQFKIDIDQEKAQALGVSINDINTTLGAAWGGSYVNDFIDRGRVKKVYVMSEAKYRMLPDDIGDWYVRAADGQMVPFSAFSSSRWEYGSPRLERYNGLPSMEILGQAAPGKSTGEAMELMEQLASKLPTGVGYDWTGMSYQERLSGNQAPSLYAISLIVVFLSLAALYESWSIPFSVMLVVPLGVIGALLAATFRGLTNDVYFQVGLLTTIGLSAKNAILIVEFAKDLMDKEGKGLIEATLDAVRMRLRPILMTSLAFILGVMPLVISTGAGSGAQNAVGTGVMGGMVTATVLAIFFVPVFFVVVRRRFSRKNEDIEHCHTVDHH
modifications: maleimide-PEG2-biotin on C1043
For the molecule B3, in “SEC-MALS [4]”, the “stoichiometry N” value is 2 and 3.

As usually defined, the stoichiometry N is the number of molecules, sites or subunits per partner or assembly.
